The source of these data is patent US20030165463.

In this data set the target is Cre recombinase (Bacteriophage P1?) (UniProt P06956). Description: cell_activity. As to conditions: pCA36 + pBHGloxΔE1,3 in 293Cre4 cells; 15 in 293 cells, homologous recombination background only.
Sequence of UniProt P06956 (P06956 whole entry): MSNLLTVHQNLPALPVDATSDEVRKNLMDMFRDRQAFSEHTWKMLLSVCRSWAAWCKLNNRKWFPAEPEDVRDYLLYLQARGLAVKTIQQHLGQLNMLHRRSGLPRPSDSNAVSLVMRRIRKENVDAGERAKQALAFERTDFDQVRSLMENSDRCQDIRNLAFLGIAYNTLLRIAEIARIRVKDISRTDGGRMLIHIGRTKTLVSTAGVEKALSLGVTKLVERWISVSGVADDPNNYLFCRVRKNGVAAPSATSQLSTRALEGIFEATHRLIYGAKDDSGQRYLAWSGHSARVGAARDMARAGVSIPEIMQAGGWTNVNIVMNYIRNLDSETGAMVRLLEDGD

As for shuttle plasmid pCA36 without loxP, the activity (total plaques in 6 dishes) turned out to be 10.
